The DeepSol protein solubility set

Assay: soluble on expression in E. coli; label from the status in PepcDB or PDB records
With “MNLDQAEITALTKRFETPFYLYDGDFIEAHYRQLRSRTNPAIQFYLSLKANNNIHLAKLFRQWGLGVEVASAGELALARHAGFSAENIIFSGPGKKRSELEIAVQSGIYCIIAESVEELFYIEELAEKENKTARVAIRINPDKSFGSTAIKMGGVPRQFGMDESMLDAVMDAVRSLQFTKFIGIHVYTGTQNLNTDSIIESMKYTVDLGRNIYERYGIVCECINLGGGFGVPYFSHEKALDIGKITRTVSDYVQEARDTRFPQTTFIIESGRYLLAQAAVYVTEVLYRKASKGEVFVIVDGGMHHHAASTFRGRSMRSNYPMEYIPVREDSGRRELEKVTIAGPLCTPEDCLGKDVHVPALYPGDLVCVLNSGAYGLSFSPVHFLGHPTPIEILKRNGSYELIRRKGTADDIVATQLQTESNLLFVDK” the “soluble on expression in E. coli” value was “soluble”.
In the case of “MRELQTLLISCLKQERISGSMFRVLGKVVNHVVCEMFKHQDIAWDGLRDYIVSQSKTKFQRAVYIFQCLTTPLEDDEFVIHVMENLLPEIRIRLNPPRDLLVDNSCWVLAFTGAFCATIHLREFPSQAESVKEIANKMIDSVRELVEIGIEVGLVRRAFRDLENIVKNLNKWNGTGS”, the “soluble on expression in E. coli” value is reported as “soluble”.
With “MGSDKIHHHHHHMVRLSEAEVQNPKLGEYQCLADLNLFDSPECTRLATQSASGRHLWVTSNHQNLAVEVYLCEDDYPGWLSLSDFDSLQPATVPYQAATFSESEIKKLLAEVIAFTQKAMQQSNYYLWGGTVGPNYDCSGLMQAAFASVGIWLPRDAYQQEGFTQPITIAELVAGDLVFFGTSQKATHVGLYLADGYYIHSSGKDQGRDGIGIDILSEQGDAVSLSYYQQLRGAGRVFKSYEPQRR” the “soluble on expression in E. coli” value was “soluble”.
In the case of “MGSDKIHHHHHHMDQQTVLPEQDHDKSAIDELDFSCHSSGNFPGILAGLKLSLVVTSYQAHRLFFVRSNGIQIDVNFKNFVRPMGISVTPQQITLGTLNQVWRFRRSDDALALLDDPHADACYVASACHTTGLINIHDIAYGNKGLWVTNSAFSCLATLEPDYSFVPRWKPDFISALAPEDRCHLNGMALLDGEPAYVTTFNQSDTARSWRDGAKDQGTLINIKTGEQIFSNLTMPHSPRCYNGYVYFCESGHGLVRRYDPRTNEVVDVVKLAGFTRGMDFFGPLMFVGLSKTRFSSVAEPAPIAQQLEESQSGIWCINLTDHSVVGFVRFEGNIDQIYDVAVLSGVMYPELLLPDDELSMSVFNFPPLSYASEN”, the “soluble on expression in E. coli” value is reported as “not soluble”.
With “MKLNRAIGVIDSGVGGLTVAKELIRQLPKERIIYLGDTARCPYGPRSREEVRQFTWEMTEHLLDLNIKMLVIACNTATAVVLEEMQKQLPIPVVGVIHPGSRTALKVTNTYHVGIIGTIGTVKSGAYEEALKSINNRVMVESLACPPFVELVESGNFESEMAYEVVRETLQPLKNTDIDTLILGCTHYPILGPVIKQVMGDKVQLISSGDETAREVSTILYHSKMLNEGEEQSDHLFLTTGKIGLFKEIASKWFGQPIENVKHIHLEKE” the “soluble on expression in E. coli” value was “not soluble”.
With “MSVSPVQPDPSVIGGVPKAPFVLKPNLARLFNDRASRFEALAQGSHLAPYLNFLAGITRIQSELVSALPPPEPVPADRVERARANAMPPIDRAAMGGSPDCREVLQQFFEKAEALEKPAAAAEALAQVRTADEEMLTWMIGNVMADDLPVESLAHHLYVAAAMQIQAARLAAGLDGSRLVPIRVGVCPACGGRPVASMVIGFHGAEGARYASCSCCATMWNEVRVKCLACGSTKGIGYQAVETGDEEATVKAEVCDTCNSWMKILYQNKNPSLDVVADDVASLGLDLLMKDTEYKRAGFDPFLMGY” the “soluble on expression in E. coli” value was “not soluble”.
For “MSLQEPFSQLESEIQVLKSHIANISGLSVPKNVLKNADGSTLKSLSEASLKVIEKTIRITAHAVNLKLRIETDIANLKNQIKLLTETKEQQDALSKALEASSTLVKLEDRHERLTERIQALEKKIDEAIRQLSYKESMPLSKEEKLWIREVNGINALLNNAGEDSLALKIEDLKVQVTALSQNEHSANEHLTDAEIQKRQNSIILAKLSLWLQNDLEKLDEVKQSVTDCIRRLREGHHHHHH”, the “soluble on expression in E. coli” value was “soluble”.
With “MRWKLLFALLAALLLAACSQSSERVVIGSKPFNEQYILANMIAILLEENGYKAEVKEGLGGTLVNYEALKRNDIQLYVEYTGTAYNVILRKQPPELWDQQYIFDEVKKGLLEADGVVVAAKLGFRDDYALAVRADWAEENGVEKISDLAEFADQLVFGSDPEFASRPDGLPQIKKVYGFEFKEVKQMEPTLMYEAIKNKQVDVIPAYTTDSRVDLFNLKILEDDKGALPPYDAIIIVNGNTAKDEKLISVLKLLEDRIDTDTMRALNYQYDVEKKDAREIAMSFLKEQGLVK” the “soluble on expression in E. coli” value was “not soluble”.
For “MKTIEIFDPAMCCPTGLCGTNINPELMRIAVVIETLKRQGVVVTRHNLRDEPQVYVSNKTVNQYLQKNGAEALPITLVDGEIAVSKDYPTTKQMSEWTGINLD”, the “soluble on expression in E. coli” value was “soluble”.
In the case of “ETAADNAAYWSIATTMRSDNSALSAVQDALGLGAAKVDTAYDALESTIEVVKQIKAKLVAAYGVGADRGKIQDEIKQLQEQLKSISESASFSGENWLQASISNSGTPPVAESITKKVVASFTRTGSGNVGVTTVDYTLDSSTVLFDLSGGKLGILDKNAVFVSKTETEVMQTSTTAGKTSQAGYVVEKLSDAQIGALNATTTDTNTDPNLYSNGTDNYLRLAENVWVKATATNPSSGGTTVSPAYRDTGSTDWFYDVSAGTASANRSLGFSVSTLDLGNLDVVAAAMGGFAGGGTTYTGADAIDMMMSFVDKQLEAMTSTASSLGSLQSRISMQENFVSSLMDVIDKGVGRLV”, the “soluble on expression in E. coli” value is reported as “not soluble”.
With “GPGSMSAETLACTYAALMLSDAGLPTSAENIAAAVKAAGVEMRPTLPIIFARFLEKKSVETLMAAAAAQAPTAASAPSPAAGAASAAAAGGKVEDKKKDEPEEEGDDDMGFGLFD” the “soluble on expression in E. coli” value was “soluble”.
With “MSLQQPLAYRMRPRHLDEVVGQQHLVGPGKIIRRMVEAKMLSSMILYGPPGTGKTSIASAIAGSTNYAFRMLNAATDTKKDLQIVAEEAKMSGTVILLLDEIHRLDKTKQDFLLPHLENGRIIMIGATTENPYITINPAIRSRTQIFEVKPLTETDIQQAIQEALTDSTRGLGDYPVHLEEKALQHLTRATNGDLRSALNGLELAVKSTPKNEQGEIKITLPIIEECVQRKALTHVKDGDAHYDVISAFQKSIRGSDVDAALHYLGRLVEAGDLPIICRRLMVIAYEDIGLGNPAAAARTVTAVQAAEKLGFPEARIPLASVVIDLCLSPKSNSAVTAIDAALADIRQGSVGDVPDHLRDAHYAGAKELNRGIGYQYPHNFENGWVNQQYLPDKLKEARYYEPIDIGKYEQALHQQLKRIQEWKEGHHHHHH” the “soluble on expression in E. coli” value was “soluble”.
In the case of “MSKADPSKGPAPACPGPDPAPRRPTRYVVPPGAVDTHAHVIGLPPTYPFVDARSYTPPAATPESYLAMLDATGMTYGVVVQVSVHGTDNRLMLETLQAHRDRLKGIAVIPLGLPDKELAALKDAGVVGLRLNILYGGGIGFERVGEYAAMAKELGWHLQFLIDAKDLVPLAPQLGGLPVPFIVDHWGHFPVSRGIDDPGFQTLVSLVRDGAWVKLSGAYRNTVAGFPYLDTIPFARLLHETAPDRCVWGSDWPHVATWQHMMNVGELLDLLADWVPDAAARDRVFTDNAYRLYGFTPVQGLEHHHHHH”, the “soluble on expression in E. coli” value is reported as “not soluble”.
For “MGSSHHHHHHSSGRENLYFQGMTKSKNNPGRGNTIRESNTMKVMEEIREKIRKAIKEGVSLREIEEIILQEAMMEEREAYLEVEDDHKNGTYFRYLGTGDGVLRLRVPRTRKGGFRPKILPEKYERTSPDYEDFLQQLVLSGMTPSQVKAVLAAKGIPYSEIVMNRVAERISNKLKEYKSRELPHDLLALYIDVKIVKVRISESIMERAIYIAIGVDLEGNKFVLDYEVRDREDLDGWKSFLSGLVSRGVSRVDVIVSDDFSGLDRVVSTLFPSSQHQLCITHMVRNLMRVLPDKEKEELMIRVRDLKSSRNVEEGRKAILSLSQLVQPFSPARAKRLLDAADKYCSFLNFPREIRHYLYTNNTSESFNLTLARFEEELGGYFPSLRSLEVYLYVSIHESNSRWKFRPMSVIRHYSYHLKQLHASRFQVSLDEDF”, the “soluble on expression in E. coli” value was “soluble”.
In the case of “MGSDKIHHHHHHMHQPSDFQVFRTLDRTSNARLLRSSTLSDGLALAHWYRDEAEILGYSDPGHHTLSLYLQGGWQTFRRDRPGLYGGPDRFCVMPAEHHSDWAVTRGLGFMHLYISPERLAGAAVRTLDCEPRSLQLEERTYIQDEPLAALCRTLERQDWNEPGEHLLCTSLAHQAVDHLLLTGCGRRTDVRWQGGLAAHVRRRLADYIESHLEQPLELGSLAELAALSEYHFARMFRVSFGLPPHRYVLERRLARARDLLAYSAQPLQEVSLACGFASPSHFNRRFREAHGATPGQYRAALKAS”, the “soluble on expression in E. coli” value is reported as “not soluble”.
For “MSYITKQDKVIAEAIEREFQRQNSNIELIASENFVSEAVMEAQGSVLTNKYAEGYPGRRYYGGCEFVDVTESIAIDRAKALFGAEHVNVQPHSGSQANMAVYLVALEMGDTVLGMNLSHGGHLTHGAPVNFSGKFYNFVEYGVDKDTERINYDEVRKLALEHKPKLIVAGASAYSRTIDFKKFKEIADEVNAKLMVDMAHIAGLVAAGLHPNPVEYADFVTTTTHKTLRGPRGGMILCKEEYKKDIDKTIFPGIQGGPLEHVIAAKAVAFGEALENNFKTYQQQVVKNAKVLAEALINEGFRIVSGGTDNHLVAVDVKGSIGLTGKEAEETLDSVGITCNKNTIPFDQEKPFVTSGIRLGTPAATTRGFDEKAFEEVAKIISLALKNSKDEEKLQQAKERVAKLTAEYPLYQ”, the “soluble on expression in E. coli” value was “not soluble”.
In the case of “PLGSDSAKLIFINQINDCKDGQKLRFLGCVQSYKNGILRLIDGSSSVTCDVTVVLPDVSIQKHEWLNIVGRKRQDGIVDVLLIRSAVGINLPRYRQMVSERQKCD”, the “soluble on expression in E. coli” value is reported as “soluble”.
In the case of “MGSDKIHHHHHHMLHGTTTKAADALDITQPAVSKILLQLTNKAGFPLFRNHRQRLIPTPEAHMLYAEVRRLFETVRGISQIAKEIRELRSGRLNISALPAFGSTLMPSIIASFTKQYPDVAITLDIRSSSTIIQRAGRNQLDIGVASEVNDETPSVVRRALIATPPVCVMPKGHPLSKLSVVQPDDFDGLNFVSLGVGDPMRKQLDELCEQRGVNRSLKVEAALSHSCINLVANGVGVTVVDRLSAWMAKDLPIEIRDFQPHLDINLSVYRPWGTIASSVADTFIEHLIQSTREYMNVVDRGIKALSEQ”, the “soluble on expression in E. coli” value is reported as “not soluble”.
In the case of “DAGGGVGKELVDLKIIWNKTKHDVKVPLDSTGSELKQKIHSITGLPPAMQKVMYKGLVPEDKTLREIKVTSGAKIMVVGSTI”, the “soluble on expression in E. coli” value is reported as “soluble”.
In the case of “MAPSGGQEAQICDSETFGDSDFVVVANRLPVDLERLPDGSTTWKRSPGGLVTALEPVLRRRRGAWVGWPGVNDDGAEPDLHVLDGPIIQDELELHPVRLSTTDIAQYYEGFSNATLWPLYHDVIVKPLYHREWWDRYVDVNQRFAEAASRAAAHGATVWVQDYQLQLVPKMLRMLRPDLTIGFFLHIPFPPVELFMQMPWRTEIIQGLLGADLVGFHLPGGAQNFLILSRRLVGTDTSRGTVGVRSRFGAAVLGSRTIRVGAFPISVDSGALDHAARDRNIRRRAREIRTELGNPRKILLGVDRLDYTKGIDVRLKAFSELLAEGRVKRDDTVVVQLATPSRERVESYQTLRNDIERQVGHINGEYGEVGHPVVHYLHRPAPRDELIAFFVASDVMLVTPLRDGMNLVAKEYVACRSDLGGALVLSEFTGAAAELRHAYLVNPHDLEGVKDGIEEALNQTEEAGRRRMRSLRRQVLAHDVDRWAQSFLDALAGAHPRGQG”, the “soluble on expression in E. coli” value is reported as “not soluble”.
In the case of “MSKWLNVGKIVNTHGVRGEVRVLSTTDFEDDRFSSGKTLYVMRPNQNERVAVTVASHRKHKNFDLLCFEGYPSINDVEAFKGGRLQVPIEDRPELGEGEFFYHEIIGCSVVTIAGEELGKVKEILSPGANDVWVVQCRRGGKDLLIPYIEQVVKQVDLEKQQITIEPMEGLLEAAALEHHHHHH”, the “soluble on expression in E. coli” value is reported as “soluble”.
